Legend:
PARP2 [1] = target: PARP2 (human (from the printed UniProt …, UniProt Q9UGN5-2 1-570)); experiment: cryo-EM structure
PARP2 [2] = target: PARP2 (UniProt Q9UGN5-2 1-570); experiment: EMSA

Binder	binding result (PARP2 [1])	binding result (PARP2 [2])
HPF1 (natural protein) MVGGGGKRRPGGEGPQCEKTTDVKKSKFCEADVSSDLRKEVENHYKLSLPEDFYHFWKFCEELDPEKPSDSLSASLGLQLVGPYDILAGKHKTKKKSTGLNFNLHWRFYYDPPEFQTIIIGDNKTQYHMGYFRDSPDEFPVYVGINEAKKNCIIVPNGDNVFAAVKLFLTKKLREITDKKKINLLKNIDEKLTEAARELGYSLEQRTVKMKQRDKKVVTKTFHGAGLVVPVDKNDVGYRELPETDADLKRICKTIVEAASDEERLKAFAPIQEMMTFVQFANDECDYGMGLELGMDLFCYGSHYFHKVAGQLLPLAYNLLKRNLFAEIIEEHLANRSQENIDQLAA	binds	–
TCGCGGCAGCTGGTGCTGCCGCGA (structured_DNA, 5' phosphate) [hairpin DNA 5'P]	–	binds

From PMC7529888 (Nature, 2020)
